These results are taken from patent US20240199716A1 (ANTLIA BIOSCIENCE, published 2024).

Test [1] addresses human natriuretic polypeptide receptor hNPR1 (the membrane-bound guanylate cyclase receptor of BNP) (human) (UniProt P16066). As to the kind of experiment: cell-based or functional assay.
Test [2] has as its target T1, human natriuretic polypeptide receptor hNPR1 (the membrane-bound guanylate cyclase receptor of BNP) (human, UniProt P16066 33-1061).
T1 sequence (looked up): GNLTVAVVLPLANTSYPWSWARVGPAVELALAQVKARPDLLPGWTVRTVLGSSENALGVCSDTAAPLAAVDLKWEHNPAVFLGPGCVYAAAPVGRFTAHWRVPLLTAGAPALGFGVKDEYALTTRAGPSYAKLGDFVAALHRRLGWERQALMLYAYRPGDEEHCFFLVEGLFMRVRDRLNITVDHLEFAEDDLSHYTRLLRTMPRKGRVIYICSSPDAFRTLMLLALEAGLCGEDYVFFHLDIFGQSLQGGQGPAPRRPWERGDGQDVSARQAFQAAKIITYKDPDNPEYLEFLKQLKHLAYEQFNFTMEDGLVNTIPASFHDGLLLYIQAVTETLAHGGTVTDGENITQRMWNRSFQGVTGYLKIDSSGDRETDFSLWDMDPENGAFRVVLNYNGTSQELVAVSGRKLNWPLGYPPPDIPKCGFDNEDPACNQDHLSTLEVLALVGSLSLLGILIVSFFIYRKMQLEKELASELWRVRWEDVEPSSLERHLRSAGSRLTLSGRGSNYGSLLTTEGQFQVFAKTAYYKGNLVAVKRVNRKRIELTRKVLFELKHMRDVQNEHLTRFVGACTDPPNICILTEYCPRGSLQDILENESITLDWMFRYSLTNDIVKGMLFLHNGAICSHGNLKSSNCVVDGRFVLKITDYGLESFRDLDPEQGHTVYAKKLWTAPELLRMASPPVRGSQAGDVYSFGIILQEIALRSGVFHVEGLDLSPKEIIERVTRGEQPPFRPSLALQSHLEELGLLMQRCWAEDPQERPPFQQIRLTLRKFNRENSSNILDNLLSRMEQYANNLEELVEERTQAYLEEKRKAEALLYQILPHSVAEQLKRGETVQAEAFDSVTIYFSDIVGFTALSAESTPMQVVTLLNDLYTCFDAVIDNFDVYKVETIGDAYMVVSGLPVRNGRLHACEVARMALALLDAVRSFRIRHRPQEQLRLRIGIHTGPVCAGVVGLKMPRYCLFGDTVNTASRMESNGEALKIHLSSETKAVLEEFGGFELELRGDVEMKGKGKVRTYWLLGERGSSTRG
As to the kind of experiment: cell-based or functional assay.

Turning to PAS400-hBNP(1-32) (ligand), in test [1], the Log dose ratio from hBNP(1-32) (NPR-1 cGMP assay, HEK293T/17) was 1.58; the Maximum % control (cGMP HTRF, % response to BNP1-32 10 µM) turned out to be 97.3%; the PEC50 (n) (cGMP HTRF, transiently transfected HEK293T/17 cells) was found to be 6.49; the Potency fold loss from hBNP(1-32) (NPR-1 cGMP assay, HEK293T/17) stood at 38.2 fold. In test [1], this molecule gave a fold reduction in potency relative to PAS200 (NPR-1 cGMP assay, HEK293T/17) of 5.2 fold and a pEC50 of 6.49.
As to PAS600-hBNP(1-32) (ligand), in test [1], the Log dose ratio from hBNP(1-32) (NPR-1 cGMP assay, HEK293T/17) is 1.5; the Maximum % control (cGMP HTRF, % response to BNP1-32 10 µM) came to 97.4%; the PEC50 (n) (cGMP HTRF, transiently transfected HEK293T/17 cells) worked out at 6.57; the Potency fold loss from hBNP(1-32) (NPR-1 cGMP assay, HEK293T/17) is 31.8 fold. In test [1], this molecule showed a pEC50 of 6.57.
Regarding PAS800-hBNP(1-32) (ligand), in test [1], the Log dose ratio from hBNP(1-32) (NPR-1 cGMP assay, HEK293T/17) was 1.54; the Maximum % control (cGMP HTRF, % response to BNP1-32 10 µM) was 89.1%; the PEC50 (n) (cGMP HTRF, transiently transfected HEK293T/17 cells) worked out at 6.53; the Potency fold loss from hBNP(1-32) (NPR-1 cGMP assay, HEK293T/17) was found to be 34.3 fold. The pEC50 in test [1] was 6.53.

B1: Compound 3, P-(SEQ ID No:2)10-A-hBNP(6-32) (PAS attached to N-terminus of glutamine 6) (ligand)
chain: PASPAAPAPASPAAPAPSAPAASPAAPAPASPAAPAPSAPAASPAAPAPASPAAPAPSAPAASPAAPAPASPAAPAPSAPAASPAAPAPASPAAPAPSAPAASPAAPAPASPAAPAPSAPAASPAAPAPASPAAPAPSAPAASPAAPAPASPAAPAPSAPAASPAAPAPASPAAPAPSAPAASPAAPAPASPAAPAPSAPAAQGSGCFGRKMDRISSSSGLGCKVLRRH
In the case of B1, in test [2], the “log EC50 (cGMP, TR-FRET, % Activation, CHO-K1 cells transfected with hNPR1)” value was -7.31; the “log dose ratio from hBNP(1-32) (hNPR1 cGMP agonist assay)” value is -1.92; the “potency fold loss from hBNP(1-32) (hNPR1 cGMP agonist assay)” value was 83 fold.

B2: Compound 5, hBNP(1-30)-(SEQ ID No:2)10-A (PAS attached to carboxy group of the C-terminal arginine 30) (ligand)
chain: SPKMVQGSGCFGRKMDRISSSSGLGCKVLRASPAAPAPASPAAPAPSAPAASPAAPAPASPAAPAPSAPAASPAAPAPASPAAPAPSAPAASPAAPAPASPAAPAPSAPAASPAAPAPASPAAPAPSAPAASPAAPAPASPAAPAPSAPAASPAAPAPASPAAPAPSAPAASPAAPAPASPAAPAPSAPAASPAAPAPASPAAPAPSAPAASPAAPAPASPAAPAPSAPAA
As for B2, in test [2], the “log EC50 (cGMP, TR-FRET, % Activation, CHO-K1 cells transfected with hNPR1)” value is -7.28; the “log dose ratio from hBNP(1-32) (hNPR1 cGMP agonist assay)” value is -1.95; the “potency fold loss from hBNP(1-32) (hNPR1 cGMP agonist assay)” value worked out at 89 fold.

B3: Compound 2, P-(SEQ ID No:2)10-A-hBNP(3-32) (PAS attached to the alpha amino group of the N-terminal lysine 3) (ligand)
chain: PASPAAPAPASPAAPAPSAPAASPAAPAPASPAAPAPSAPAASPAAPAPASPAAPAPSAPAASPAAPAPASPAAPAPSAPAASPAAPAPASPAAPAPSAPAASPAAPAPASPAAPAPSAPAASPAAPAPASPAAPAPSAPAASPAAPAPASPAAPAPSAPAASPAAPAPASPAAPAPSAPAASPAAPAPASPAAPAPSAPAAKMVQGSGCFGRKMDRISSSSGLGCKVLRRH
With B3, in test [2], the “log EC50 (cGMP, TR-FRET, % Activation, CHO-K1 cells transfected with hNPR1)” value was -7.84; the “log dose ratio from hBNP(1-32) (hNPR1 cGMP agonist assay)” value was -1.39; the “potency fold loss from hBNP(1-32) (hNPR1 cGMP agonist assay)” value turned out to be 25 fold.
